According to the supplement of paper PMC9732359:
± gives the uncertainty stated by the source.

assay: protein stability index of a GFP-peptide fusion (yeast GPS) (PSI 1-4); higher = more stable; sorted into four equal gates, so the index is relative within each strain; details: san1∆
Outline: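 Tiled 17-residue yeast protein peptides were fused downstream of GFP in a plasmid that also expresses Cherry, and the pooled library was carried in yeast. Mid-log cultures in leucine-free medium were sorted into four equal gates by GFP/Cherry fluorescence ratio, and plasmids from each gate were PCR-amplified and Illumina-sequenced, with reads assigned to strains by barcodes. The protein stability index for each peptide was each gate's read frequency times its gate number, summed.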

VNDSVISAPSMEDEILS [BRN1] showed a protein stability index of 2.41 ± 0.11.

same assay, conditions: ubr1∆

Compared with TTTKIIDSTDHIRKASS [LRP1], TTTSNTSGTNIAGTFNV [YOR098C/NUP1] is lower in protein stability index: 2.32 ± 0.038 for the first, 2.24 ± 0.028 for the second.

Compared with TTTTTTTNNNNTNNNNT [SWI1], TVAHIQYDFKAVLEEND [RPN14] is lower in protein stability index: 3.465 ± 0.024 for the first, 2.28 ± 0.24 for the second.

Going from TVALREIRRFQKSTELL [HHT1] to TVKLTEIVWTSSLIKAG [RPO31], the protein stability index falls from 3.02 ± 0.078 to 1.24 ± 0.063.

Going from TVLVIDNSEYSRNGDFP [RPN10] to TVNEPQMSDKHATVVPP [SRB7], the protein stability index rises from 2.44 ± 0.041 to 3.07 ± 0.092.

Compared with TVPNLPTTMVTNQKDTN [ISW2], TVQSWLCDLFVNGSITD [NUT1] is lower in protein stability index: 1.75 ± 0.051 for the first, 1.23 ± 0.043 for the second.

Going from TVSPDFVAATTNAGYTI [FAS1] to TVSPTQDKDAIRKQPDD [SIR2], the protein stability index rises from 2.56 ± 0.058 to 2.9 ± 0.096.

Going from TWENEFLDSQRVWAEYA [PRP8] to TWNGSPFDNSTEEKCKN [YJL039C/NUP192], the protein stability index rises from 2.89 ± 0.11 to 3.33 ± 0.073.

Going from TWYVGNSRGKFDDACNQ [SSN2] to TYGFSILDIVINNPVNL [FAS1], the protein stability index falls from 3.26 ± 0.16 to 3.02 ± 0.074.

Going from TYIKSEITQQEKGLNEL [SMC4] to TYRSRAQQVPPYGVYHP [SIN4], the protein stability index rises from 1.55 ± 0.051 to 2.71 ± 0.078.

First: VAAAGITASTLLYADSL [CYT1]
Second: VAAFVNNYPNVELTYSL [BRR2]
The protein stability index of the first is lower: 1.93 ± 0.078 for the first, 2.9 ± 0.087 for the second.

First: VAALKAVGAHSDLLKVL [RPL4A]
Second: VAALRFTAGARAKIVKA [RPL18A]
The protein stability index of the first is higher: 2.83 ± 0.059 for the first, 1.18 ± 0.1 for the second.

VAASIIPFPDHNQSPRN [RPB2] and VADEEANIELTWAEGTF [RPC37] are within error of each other in protein stability index: 2.63 ± 0.078 for the first, 2.52 ± 0.071 for the second.

Going from VAEIEKTADVKRQYVKQ [RPL20A] to VAIDQDKITLHDEKTLA [SIR4], the protein stability index falls from 3.1 ± 0.079 to 2.71 ± 0.08.

Compared with VAMCFVINKLDRLILDL [SNU114], VARIPRVGGGGTGRSGQ [RPL4A] is lower in protein stability index: 2.77 ± 0.04 for the first, 2.57 ± 0.086 for the second.

Compared with VASADYESQTFSSKNEW [PRP8], VASLSKRNKLLTIFDSV [YJL039C/NUP192] is lower in protein stability index: 2.89 ± 0.13 for the first, 1.89 ± 0.048 for the second.

Compared with VATEPLLDILVKGETRI [PRP8], VCIRPSVMMQDSPASNE [RPO31] is higher in protein stability index: 1.8 ± 0.032 for the first, 2.06 ± 0.099 for the second.

Going from VDAITRCYQPFELFDNK [SNU114] to VDFEKFETFLVDVNNKF [SIN4], the protein stability index rises from 3 ± 0.068 to 3.31 ± 0.052.

First: VDIQIINQYQLLYNLKN [SWI1]
Second: VDKNGAHLYMLEPSGSY [PRE10]
The protein stability index of the first is lower: 1.33 ± 0.033 for the first, 2.52 ± 0.058 for the second.

VDNDNWVYKTKGDGMTS [RPN1] and VDNIVNKYQYSLKQYAG [SRP68] are within error of each other in protein stability index: 3.1 ± 0.11 for the first, 2.99 ± 0.055 for the second.

First: VDNVTLESYKTQAKKLY [SRP72]
Second: VDPFDSDEEESVLDEQE [SNU114]
The protein stability index of the first is lower: 2.89 ± 0.11 for the first, 3.36 ± 0.073 for the second.

Compared with VDQEMLYEIILAANYLN [SKP1], VDSRNETDHKTNENGET [SRB4] is higher in protein stability index: 1.84 ± 0.057 for the first, 3.27 ± 0.19 for the second.

VDSWDREFLKVDQEMLY [SKP1] and VDTSTELESMLEDLKNT [RRP6] are within error of each other in protein stability index: 3.26 ± 0.086 for the first, 3.13 ± 0.054 for the second.

VEEKPGDRGALARASGN [RPL2A] and VEELPTFHDYDMVKLDI [RRP42] are the same in protein stability index: 3.13 ± 0.11 for the first, 3.13 ± 0.033 for the second.

First: VEFKLPKELVPSHEKLK [CDC53]
Second: VEITFGKEFGDVSVKMG [RRP45]
The protein stability index of the first is higher: 2.08 ± 0.045 for the first, 1.79 ± 0.12 for the second.

VEKTEKPKKPKGRAYKR [RPS30A] and VEMAWIMGFISYHNGNL [FAS2] are within error of each other in protein stability index: 3.05 ± 0.07 for the first, 3.06 ± 0.12 for the second.

VEQTAEVTIEDALKVVL [RPS12] and VETNTTVLADEFIAHRL [RPB3] are within error of each other in protein stability index: 3.21 ± 0.045 for the first, 3.22 ± 0.033 for the second.

Compared with VEVDITLSPNVTDSSLL [GRR1], VFALHKYKPTPLYVMDE [SMC4] is higher in protein stability index: 2.82 ± 0.046 for the first, 3.07 ± 0.056 for the second.

Going from VFEISENNSDSNSNNNG [SWI1] to VFERFKTKILEVAIRDV [IRR1], the protein stability index falls from 3.28 ± 0.15 to 1.67 ± 0.072.

Going from VFESLEINNLIQLPASL [ARP9] to VFLEFSLNFIPITASTS [YML103C/NUP188], the protein stability index falls from 1.6 ± 0.055 to 1.48 ± 0.038.

VFLYFEDNAGVIANPKG [RPL23A] and VFSHAQTAVTCESCSTV [RPS27B] are within error of each other in protein stability index: 1.9 ± 0.047 for the first, 2.04 ± 0.11 for the second.

VFYAPNVKNYSTTQEIL [RPC34] and VFYRGMTMQVAVPRDEL [FAS1] are within error of each other in protein stability index: 2.06 ± 0.048 for the first, 1.97 ± 0.12 for the second.

Going from VGFLVQLDLTGIFLHGK [PRP8] to VGGTTSISGFKEALLGQ [ARP9], the protein stability index rises from 2.39 ± 0.067 to 2.81 ± 0.039.

Compared with VGRLWDQTFPINCNKET [ECM29], VGSENVECTISILRKSS [SNF12] is lower in protein stability index: 3.09 ± 0.1 for the first, 2.11 ± 0.036 for the second.

First: VHLSNGYKMIPGAKPLQ [FAS1]
Second: VHPRKSYKMNSSAADIT [PRP8]
The protein stability index of the first is lower: 1.81 ± 0.05 for the first, 2.74 ± 0.058 for the second.

First: VHVIHFQHADNSSMRYG [AAR2]
Second: VIDTLAAGYGKILGKGR [RPL28]
The protein stability index of the first is lower: 2.53 ± 0.055 for the first, 3.52 ± 0.14 for the second.

Going from VIEEDYDDEQNTSAQHV [IRR1] to VIFDASIKDTQNVGQGK [BRN1], the protein stability index falls from 3.52 ± 0.19 to 3.01 ± 0.096.

Going from VIKLAKYPDYFPEWKKS [ARP9] to VIPSYSKWFNLEKIHSI [SWI3], the protein stability index falls from 3.27 ± 0.13 to 1.89 ± 0.038.

Compared with VISFGQPKLNPMASSSS [SWI1], VISIVGGHSLEEISFSL [PRP28] is higher in protein stability index: 2.13 ± 0.056 for the first, 3.18 ± 0.13 for the second.

Compared with VISNLVPKLESSRTKFW [YJL039C/NUP192], VIVPQIVLDEVRNKSYP [DIS3] is lower in protein stability index: 2.69 ± 0.2 for the first, 1.46 ± 0.04 for the second.

VKAILMQRHVKVDGKVR [RPS4A] and VKESNNYYSNKSNSTGN [REC8] are within error of each other in protein stability index: 2.9 ± 0.086 for the first, 2.97 ± 0.046 for the second.

Going from VKEYQLRDRNFSATGNF [RPL11A] to VKIMRDPAKSRTGPKAL [RPS3], the protein stability index rises from 3.22 ± 0.089 to 3.52 ± 0.11.

VKKPTFTFGQSTSENKI [YOR098C/NUP1] and VKLWEEDPDQEECSGRR [YGL100W/SEH1] are within error of each other in protein stability index: 3.45 ± 0.14 for the first, 3.37 ± 0.055 for the second.

Compared with VKSKIQDKEGIPPDQQR [RPS31], VKTTLVSLTQLRCVKYL [RPC82] is lower in protein stability index: 3.44 ± 0.061 for the first, 1.37 ± 0.11 for the second.

First: VKVHMDSETSDPNEVEI [DIS3]
Second: VLDSYTPSTNEPYARVS [FAS1]
The protein stability index of the first is higher: 3.52 ± 0.088 for the first, 3.01 ± 0.044 for the second.

First: VLEYLAAEILELAGNAA [HTA1]
Second: VLISKLSCEKITHYAVR [RRI1]
The protein stability index of the first is higher: 2.84 ± 0.1 for the first, 1.67 ± 0.039 for the second.

Compared with VLKACGILSDLEIMQLV [RET1], VLKEKDVPAYNVTSFMP [SRB8] is higher in protein stability index: 2.56 ± 0.082 for the first, 3 ± 0.037 for the second.

VLPDADVKLLHSQFMKD [YJL039C/NUP192] and VLPNTALKTSIQHVGMI [FAS1] are within error of each other in protein stability index: 2.27 ± 0.25 for the first, 2.4 ± 0.24 for the second.

Going from VLRINKMLSCAGADRLQ [RPL10] to VLRIPEEYLDANVFRLE [MTW1], the protein stability index rises from 1.11 ± 0.084 to 3.23 ± 0.053.

First: VLSPDSNIMSDSKKIKV [GAL11]
Second: VLSTFTAEFGKILAGLH [RPN10]
The protein stability index of the first is lower: 2.21 ± 0.12 for the first, 3.05 ± 0.11 for the second.

Going from VMKQVETLVLDEADKMI [PRP28] to VMLLGTPDANLISKPAK [UBP6], the protein stability index rises from 3.04 ± 0.12 to 3.32 ± 0.12.

Going from VMRNEIRITSLQGDLTF [SIR4] to VNAPLPTPFKVDDNVDF [RPN2], the protein stability index rises from 2.68 ± 0.063 to 2.96 ± 0.086.

VNDSVISAPSMEDEILS [BRN1] showed a protein stability index of 2.86 ± 0.073.
